Reference: article PMC3760248
Numbering of substitutions follows the chain as printed.

Experiments:
Experiment in all cases: ITC
MepR(F27L/F104A) = molecular target: T1, MepR(F27L/F104A) (Staphylococcus aureus, UniProt Q5Y812 1-139, F27L;F104A)
T1 sequence: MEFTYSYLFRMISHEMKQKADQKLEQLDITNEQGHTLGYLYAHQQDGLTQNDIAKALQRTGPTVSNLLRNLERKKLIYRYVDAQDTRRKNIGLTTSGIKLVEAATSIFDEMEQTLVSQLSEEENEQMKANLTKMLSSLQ

MepR(A103S) = molecular target: T2, MepR(A103S) (Staphylococcus aureus, UniProt Q5Y812 1-139, A103S)
T2 sequence: T1 sequence with L27F, A103S, A104F

MepR(Q18A) = molecular target: T3, MepR(Q18A) (Staphylococcus aureus, UniProt Q5Y812 1-139, Q18A)
T3 sequence: T1 sequence with Q18A, L27F, A104F

MepR WT = molecular target: T4, MepR WT (Staphylococcus aureus, UniProt Q5Y812 1-139)
T4 sequence: T1 sequence with L27F, A104F

B1: mepR operator, palindromic 26-mer (dsDNA)
DNA 1: TATTTAGTTAGATATCTAACTAAATA
DNA 2: TATTTAGTTAGATATCTAACTAAATA
- Kd (MepR(F27L/F104A)): 32.3 nM
- Kd (MepR(A103S)): 42.6 nM
- Kd (MepR(Q18A)): 34.1 nM
- Kd (MepR WT): 36.6 nM
